Measured values: PMC4658161, “Mutually Exclusive Roles of SHARPIN in Integrin Inactivation and NF-κB Signaling” (PLoS ONE, 2015)
Where a chain is given by its changes, count along the chain named.

Target: T1, recombinant full-length human ITGAL-ITGB2 (human, UniProt P20701 26-1170; P05107 23-769)
T1 construct: integrin alpha L (ITGAL), human, full-length; integrin beta 2 (ITGB2), human, full-length; also called full-length ITGAL-ITGB2; LFA-1; source: bought: Origene
Experiment: far-Western; GST-SHARPIN (WT, fragments or point mutants) with recombinant full-length ITGAL-ITGB2 or recombinant RNF31; which partner was on the membrane is not told; performed as described in ref. 5
Conditions: both partners purified

T1 sequence (P20701 26-1170, chain 1 of 2): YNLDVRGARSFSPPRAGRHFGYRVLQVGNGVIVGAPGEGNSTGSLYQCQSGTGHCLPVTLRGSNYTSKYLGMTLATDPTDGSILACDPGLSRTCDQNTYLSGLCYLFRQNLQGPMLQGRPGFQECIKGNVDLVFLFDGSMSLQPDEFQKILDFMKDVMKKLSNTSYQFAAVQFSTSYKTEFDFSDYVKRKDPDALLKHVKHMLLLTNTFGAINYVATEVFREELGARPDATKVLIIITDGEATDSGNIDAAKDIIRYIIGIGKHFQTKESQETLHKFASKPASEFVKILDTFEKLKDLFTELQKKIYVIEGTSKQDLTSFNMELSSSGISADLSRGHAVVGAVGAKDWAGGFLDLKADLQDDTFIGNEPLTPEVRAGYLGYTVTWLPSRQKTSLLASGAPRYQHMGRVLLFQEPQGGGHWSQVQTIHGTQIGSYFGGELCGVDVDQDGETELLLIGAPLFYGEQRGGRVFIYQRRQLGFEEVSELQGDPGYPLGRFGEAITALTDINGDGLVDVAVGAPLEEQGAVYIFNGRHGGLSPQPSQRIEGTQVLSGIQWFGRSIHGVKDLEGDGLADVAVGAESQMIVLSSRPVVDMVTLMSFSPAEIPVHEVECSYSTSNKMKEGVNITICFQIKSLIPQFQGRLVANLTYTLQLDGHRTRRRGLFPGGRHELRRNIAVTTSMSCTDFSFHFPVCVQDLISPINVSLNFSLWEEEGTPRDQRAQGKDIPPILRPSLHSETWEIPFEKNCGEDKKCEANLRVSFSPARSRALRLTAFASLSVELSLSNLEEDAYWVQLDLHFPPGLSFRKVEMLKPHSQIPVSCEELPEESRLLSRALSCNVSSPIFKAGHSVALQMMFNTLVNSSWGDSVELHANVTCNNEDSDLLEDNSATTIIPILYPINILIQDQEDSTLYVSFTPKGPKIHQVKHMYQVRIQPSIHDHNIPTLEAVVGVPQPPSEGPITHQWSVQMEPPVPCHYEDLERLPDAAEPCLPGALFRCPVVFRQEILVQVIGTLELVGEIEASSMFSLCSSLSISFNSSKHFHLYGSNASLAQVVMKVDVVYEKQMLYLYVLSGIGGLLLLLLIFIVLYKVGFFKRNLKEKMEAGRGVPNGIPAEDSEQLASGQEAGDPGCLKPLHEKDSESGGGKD
T1 sequence (P05107 23-769, chain 2 of 2): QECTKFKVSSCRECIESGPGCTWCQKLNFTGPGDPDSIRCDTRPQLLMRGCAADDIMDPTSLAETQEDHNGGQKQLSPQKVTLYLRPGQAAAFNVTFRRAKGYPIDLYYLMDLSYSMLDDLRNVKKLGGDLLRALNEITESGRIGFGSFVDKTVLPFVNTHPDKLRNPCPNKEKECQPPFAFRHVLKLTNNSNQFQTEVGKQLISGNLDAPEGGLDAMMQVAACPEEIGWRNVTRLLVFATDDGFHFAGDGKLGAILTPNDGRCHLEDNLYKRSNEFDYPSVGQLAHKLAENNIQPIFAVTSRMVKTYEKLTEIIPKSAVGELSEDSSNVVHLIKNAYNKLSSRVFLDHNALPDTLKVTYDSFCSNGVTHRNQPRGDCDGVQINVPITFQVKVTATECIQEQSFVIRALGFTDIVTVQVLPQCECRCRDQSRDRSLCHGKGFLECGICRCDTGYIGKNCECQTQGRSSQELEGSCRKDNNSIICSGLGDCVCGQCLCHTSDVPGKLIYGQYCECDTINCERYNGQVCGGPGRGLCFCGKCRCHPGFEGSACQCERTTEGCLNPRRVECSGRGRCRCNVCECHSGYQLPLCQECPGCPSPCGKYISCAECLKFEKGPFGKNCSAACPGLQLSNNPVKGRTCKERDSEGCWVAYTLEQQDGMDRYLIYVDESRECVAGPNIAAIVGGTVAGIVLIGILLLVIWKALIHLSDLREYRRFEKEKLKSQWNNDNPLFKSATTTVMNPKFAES

B1: GST-SHARPIN^WT (natural protein, UniProt Q9H0F6 1-387, looked up)
chain: MAPPAGGAAAAASDLGSAAVLLAVHAAVRPLGAGPDAEAQLRRLQLSADPERPGRFRLELLGAGPGAVNLEWPLESVSYTIRGPTQHELQPPPGGPGTLSLHFLNPQEAQRWAVLVRGATVEGQNGSKSNSPPALGPEACPVSLPSPPEASTLKGPPPEADLPRSPGNLTEREELAGSLARAIAGGDEKGAAQVAAVLAQHRVALSVQLQEACFPPGPIRLQVTLEDAASAASAASSAHVALQVHPHCTVAALQEQVFSELGFPPAVQRWVIGRCLCVPERSLASYGVRQDGDPAFLYLLSAPREAPATGPSPQHPQKMDGELGRLFPPSLGLPPGPQPAASSLPSPLQPSWSCPSCTFINAPDRPGCEMCSTQRPCTWDPLAAAST
notes: also called GST-SHARPIN (full-length); source: E. coli strain Rosetta BL21DE3, purified
Question: Does B1 bind?
Answer: binds

B2: GST-SHARPIN^L276A (natural protein, UniProt Q9H0F6 1-387, looked up)
chain: B1 chain with L276A
notes: source: E. coli strain Rosetta BL21DE3, purified
Question: Does B2 bind?
Answer: binds
